In one data set the target is T1, NONO homodimer (human, UniProt Q15233 53-312).
T1 sequence: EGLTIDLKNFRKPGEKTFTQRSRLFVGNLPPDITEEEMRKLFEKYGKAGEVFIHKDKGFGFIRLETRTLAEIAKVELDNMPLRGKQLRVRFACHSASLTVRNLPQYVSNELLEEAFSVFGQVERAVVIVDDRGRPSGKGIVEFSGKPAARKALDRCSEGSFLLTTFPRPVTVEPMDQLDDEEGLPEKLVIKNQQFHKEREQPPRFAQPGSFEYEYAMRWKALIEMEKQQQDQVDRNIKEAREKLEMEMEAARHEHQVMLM
Description: MST.

The target of data set [1] is T2, NONO in NONO/SFPQ heterodimer;SFPQ in NONO/SFPQ heterodimer (human;human?, UniProt Q15233;P23246 53-312;276-535, |).
T2 sequence 1: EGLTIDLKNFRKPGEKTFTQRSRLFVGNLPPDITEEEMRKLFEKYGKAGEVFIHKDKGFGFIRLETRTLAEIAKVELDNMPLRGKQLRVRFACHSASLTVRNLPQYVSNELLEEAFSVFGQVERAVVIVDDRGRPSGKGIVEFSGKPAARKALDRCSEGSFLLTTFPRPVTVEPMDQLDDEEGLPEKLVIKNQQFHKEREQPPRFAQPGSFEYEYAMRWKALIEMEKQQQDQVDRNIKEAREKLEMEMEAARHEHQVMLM
T2 sequence 2: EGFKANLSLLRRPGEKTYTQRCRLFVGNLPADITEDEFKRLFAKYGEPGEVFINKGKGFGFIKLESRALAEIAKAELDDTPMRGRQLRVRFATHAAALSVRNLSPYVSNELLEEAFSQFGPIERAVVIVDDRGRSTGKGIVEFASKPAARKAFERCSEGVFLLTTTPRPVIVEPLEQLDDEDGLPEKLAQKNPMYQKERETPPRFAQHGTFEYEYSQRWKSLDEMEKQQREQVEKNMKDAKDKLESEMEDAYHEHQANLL
Briefly: MST.

B1: GU-rich RNA oligo 1 (ssRNA)
RNA: TGUGUGUGGCCGU
modifications: 5' residue printed as T
Regarding B1, the binding result (with NONO homodimer; in data set [1]) was “binds” throughout.

B2: GU-rich RNA oligo 2 (ssRNA)
RNA: TUGUGCCGUCU
modifications: 5' residue printed as T
On to B2, for which the binding result (with NONO homodimer; in data set [1]) was “binds” throughout.
